Laboratory results as given in patent publication US20220411536A1 (NUMAB THERAPEUTICS, published 2022).

What was measured:
[1] = target: T1, Fc-tagged human PD-L1 extracellular domain (SinoBiological, cat. 10084-H02H) (human, UniProt Q9NZQ7 19-238); assay: SPR, captured Fc-PD-L1 ECD, scFv analyte, kinetic
T1 construct: extracellular domain; also called hPD-L1; not shown: Fc tag of the bought protein

[2] = target: T2, human PD-L1 expressed on cells (CHO-PD-L1, HCC1954, HCC827) (human, UniProt Q9NZQ7 19-290); assay: flow cytometry, CHO-PD-L1 cells
T2 construct: whole, on cells; also called hPD-L1; PD-L1 expressing cells

[3] = target: T2, human PD-L1 expressed on cells …; assay: cell-based or functional assay
[4] = target: T1, Fc-tagged human PD-L1 extracellular …; assay: SPR, alanine mutants of 33-03-G02

| Binder | Kd [1] [nM] | koff [1] [s⁻¹] | kon [1] [M⁻¹ s⁻¹] | EC50 [2] [µg/mL] | IC50, neutralization of PD-L1 in NF-AT potency assay [3] [µg/mL] | fold reduction of affinity vs the original domain [4] [fold] |
| --- | --- | --- | --- | --- | --- | --- |
| PRO830 (scFv, V domains shown, also called 33-03-G02; parental scFv) VH: QVQLQESGPGLVKPSETLSLTCKVSGFSFSSGYDMCWIRQPPGKGLEWIGCVVAGSVDITYYASWAKGRVTISVDSSKNQFSLKLSSVTAADTAVYYCARKDAYSDAFNLWGQGTLVTVSS VL: DIQMTQSPSSLSASVGDRVTITCQASQSINDYLAWYQQKPGKAPKLLIYKASTLASGVPSRFSGSGSGTDFTLTISSLQPEDFATYYCQQGYIITDIDNVFGTGTKVTVLG | 0.0781 | 0.000139 | 1.78e+06 | 0.0055 | 0.0204 | – |
| PRO1075 (scFv, V domains shown, also called 33-03-G02 VL-Q108A) VH: QVQLQESGPGLVKPSETLSLTCKVSGFSFSSGYDMCWIRQPPGKGLEWIGCVVAGSVDITYYASWAKGRVTISVDSSKNQFSLKLSSVTAADTAVYYCARKDAYSDAFNLWGQGTLVTVSS VL: DIQMTQSPSSLSASVGDRVTITCQASQSINDYLAWYQQKPGKAPKLLIYKASTLASGVPSRFSGSGSGTDFTLTISSLQPEDFATYYCQAGYIITDIDNVFGTGTKVTVLG | 12.2 | 0.0205 | 1.67e+06 | 333 | 0.828 | > 100 |
| PRO1089 (scFv, V domains shown, also called 33-03-G02 VH-Y112A) VH: QVQLQESGPGLVKPSETLSLTCKVSGFSFSSGYDMCWIRQPPGKGLEWIGCVVAGSVDITYYASWAKGRVTISVDSSKNQFSLKLSSVTAADTAVYYCARKDAASDAFNLWGQGTLVTVSS VL: DIQMTQSPSSLSASVGDRVTITCQASQSINDYLAWYQQKPGKAPKLLIYKASTLASGVPSRFSGSGSGTDFTLTISSLQPEDFATYYCQQGYIITDIDNVFGTGTKVTVLG | 16.5 | 0.0328 | 1.99e+06 | 51.2 | 1.28 | > 100 |
